Tests used:
Format in all cases: cell-based
[1] = tested on: RAJI cells; assay: JNG assay, co-culture with RAJI cells; details: JNG cells expressing construct, co-culture with Raji
Method in brief: (§1)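 Read-out is NFAT-driven GFP measured by flow cytometry after ~4–18 h co-culture of SAR-expressing JNG cells with target cells (E:T about 1:2). SARs were introduced by lentiviral spinfection and selected with puromycin or blasticidin when possible; scores (+/- to 5+ ≈ 5–50% GFP+) are relative to parental JNG cells.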

[2] = tested on: RS;411; assay: JNG assay, co-culture with RS;411 cells; details: co-culture with RS411
Method in brief: as §1

[3] = tested on: RAJI-CD19-KO cells; assay: JNG assay, co-culture with RAJI-CD19-KO cells; details: co-culture with Raji-CD19-KO
Method in brief: as §1

Row | Molecule | NFAT-GFP ASSAY: Raji [1] | NFAT-GFP ASSAY: RS411 [2] | NFAT-GFP ASSAY: Raji-CD19-KO [3]
1 | 22108 (protein) MALPVTALLLPLALLLHAARPQVQLVESGGGLVQPGGSLRLSCAASGFTFTNHAMSWVRQAPGKGLELVSSISGNGRTTYYADSVKGRFTISRDISKNTLDLQMNSLRAEDTAVYYCAKDGGETLVDSRGQGTLVTVSSGTGGGGSGGGGSGGGGSEFDIQMTQSPSSLSASVGDRVTITCKASDHINNWLAWYQQKPGQAPKLLIYGATTLETGVPSRFSGSGSGTDYTLTISSLQPEDFATYYCQQSWNTPWTFGQGTKLEIKRLEDLKNVFPPEVAVFEPSEAEISHTQKATLVCLATGFYPDHVELSWWVNGKEVHSGVCTDPQPLKEQPALNDSRYCLSSRLRVSATFWQNPRNHFRCQVQFYGLSENDEWTQDRAKPVTQIVSAEAWGRADCGFTSESYQQGVLSATILYEILLGKATLYAVLVSALVLMAMVKRKDSRGRAKRSGSGATNFSLLKQAGDVEENPGPTSMDWIWRILFLVGAATGAHSFEQVQLQQPGAELVKPGASVKMSCKASGYAFSSYWINWMKQKPGQGLEWIGQIYPGDGDTNYNGKFKGRATLTADTSSSTAYMQLSSLTSEDSAVYFCARSITTVVGCAMDYWGQGTSVTVSSTRIQNPDPAVYQLRDSKSSDKSVCLFTDFDSQTNVSQSKDSDVYITDKCVLDMRSMDFKSNSAVAWSNKSDFACANAFNNSIIPEDTFFPSPESSCDVKLVEKSFETDTNLNFQNLSVIGFRILLLKVAGFNLLMTLRLWSSRAKRSGSGVKQTLNFDLLKLAGDVESNPGPSRGHMTEYKPTVRLATRDDVPRAVRTLAAAFADYPATRHTVDPDRHIERVTELQELFLTRVGLDIGKVWVADDGAAVAVWTTPESVEAGAVFAEIGPRMAELSGSRLAAQQQMEGLLAPHRPKEPAWFLATVGVSPDHQGKGLGSAVVLPGVEAAERAGVPAFLETSAPRNLPFYERLGFTVTADVEVPEGPRTWCMTRKPGA | 4+ (refer to approximately 5%, 10%, 20%, 30%, 40% and 50% GFP positive cells) | 5+ (refer to approximately 5%, 10%, 20%, 30%, 40% and 50% GFP positive cells) | 3+ (refer to approximately 5%, 10%, 20%, 30%, 40% and 50% GFP positive cells)
2 | 22104 (protein) MALPVTALLLPLALLLHAARPDIQMTQSPSSLSASVGDRVTITCKASDHINNWLAWYQQKPGQAPKLLIYGATTLETGVPSRFSGSGSGTDYTLTISSLQPEDFATYYCQQSWNTPWTFGQGTKLEIKRLEDLKNVFPPEVAVFEPSEAEISHTQKATLVCLATGFYPDHVELSWWVNGKEVHSGVCTDPQPLKEQPALNDSRYCLSSRLRVSATFWQNPRNHFRCQVQFYGLSENDEWTQDRAKPVTQIVSAEAWGRADCGFTSESYQQGVLSATILYEILLGKATLYAVLVSALVLMAMVKRKDSRGRAKRSGSGATNFSLLKQAGDVEENPGPTSATMDWIWRILFLVGAATGAHSGPQVQLQESGGGLAQAGGSLRLSCAASGRTFSMGWFRQAPGKEREFVAAITYSGGSPYYASSVRGRFTISRDNAKNTVYLQMNSLKPEDTAVYYCAANPTYGSDWNAENWGQGTQVTVSSGSGGGGSGGGGSGGGGSFEQVQLQQPGAELVKPGASVKMSCKASGYAFSSYWINWMKQKPGQGLEWIGQIYPGDGDTNYNGKFKGRATLTADTSSSTAYMQLSSLTSEDSAVYFCARSITTVVGCAMDYWGQGTSVTVSSTRIQNPDPAVYQLRDSKSSDKSVCLFTDFDSQTNVSQSKDSDVYITDKCVLDMRSMDFKSNSAVAWSNKSDFACANAFNNSIIPEDTFFPSPESSCDVKLVEKSFETDTNLNFQNLSVIGFRILLLKVAGFNLLMTLRLWSSRAKRSGSGVKQTLNFDLLKLAGDVESNPGPSRGHMTEYKPTVRLATRDDVPRAVRTLAAAFADYPATRHTVDPDRHIERVTELQELFLTRVGLDIGKVWVADDGAAVAVWTTPESVEAGAVFAEIGPRMAELSGSRLAAQQQMEGLLAPHRPKEPAWFLATVGVSPDHQGKGLGSAVVLPGVEAAERAGVPAFLETSAPRNLPFYERLGFTVTADVEVPEGPRTWCMTRKPGA | 5+ (refer to approximately 5%, 10%, 20%, 30%, 40% and 50% GFP positive cells) | 5+ (refer to approximately 5%, 10%, 20%, 30%, 40% and 50% GFP positive cells) | 5+ (refer to approximately 5%, 10%, 20%, 30%, 40% and 50% GFP positive cells)
3 | 22125 (protein) MALPVTALLLPLALLLHAARPEVQLVESGGGLVQAGGSLRLSCAASGRTFSMGWFRQAPGKEREFVAAITYSGGSPYYADSVKGRFTISRDNAKNTVYLQMNSLKPEDTAVYYCAANPTYGSDWNAENWGQGTQVTVSSGTGGGGSGGGGSGGGGSEFDIQMTQSPSSLSASVGDRVTITCKASDHINNWLAWYQQKPGQAPKLLIYGATTLETGVPSRFSGSGSGTDYTLTISSLQPEDFATYYCQQSWNTPWTFGQGTKLEIKRLEDLKNVFPPEVAVFEPSKAEIAHTQKATLVCLATGFYPDHVELSWWVNGKEVHSGVCTDPQPLKEQPALNDSRYCLSSRLRVSATFWQNPRNHFRCQVQFYGLSENDEWTQDRAKPVTQIVSAEAWGRADCGITSASYHQGVLSATILYEILLGKATLYAVLVSALVLMAMVKRKDSRGRAKRSGSGATNFSLLKQAGDVEENPGPTSATMDWIWRILFLVGAATGAHSGPQVQLQESGGGLAQAGGSLRLSCAASGRTFSMGWFRQAPGKEREFVAAITYSGGSPYYASSVRGRFTISRDNAKNTVYLQMNSLKPEDTAVYYCAANPTYGSDWNAENWGQGTQVTVSSGSGGGGSGGGGSGGGGSFEQVQLQQPGAELVKPGASVKMSCKASGYAFSSYWINWMKQKPGQGLEWIGQIYPGDGDTNYNGKFKGRATLTADTSSSTAYMQLSSLTSEDSAVYFCARSITTVVGCAMDYWGQGTSVTVSSTRIQNPDPAVYQLRDSKSSDKSVCLFTDFDSQTNVSQSKDSDVYITDKCVLDMRSMDFKSNSAVAWSNKSDFACANAFNNSIIPEDTFFPSSDVPCDVKLVEKSFETDTNLNFQNLSVIGFRILLLKVAGFNLLMTLRLWSSRAKRSGSGVKQTLNFDLLKLAGDVESNPGPSRGHMTEYKPTVRLATRDDVPRAVRTLAAAFADYPATRHTVDPDRHIERVTELQELFLTRVGLDIGKVWVADDGAAVAVWTTPESVEAGAVFAEIGPRMAELSGSRLAAQQQMEGLLAPHRPKEPAWFLATVGVSPDHQGKGLGSAVVLPGVEAAERAGVPAFLETSAPRNLPFYERLGFTVTADVEVPEGPRTWCMTRKPGA | 4+ (refer to approximately 5%, 10%, 20%, 30%, 40% and 50% GFP positive cells) | +/- (refer to approximately 5%, 10%, 20%, 30%, 40% and 50% GFP positive cells) | 5+ (refer to approximately 5%, 10%, 20%, 30%, 40% and 50% GFP positive cells)
4 | 22107 (protein) MALPVTALLLPLALLLHAARPDIQMTQSPSSLSASVGDRVTITCKASDHINNWLAWYQQKPGQAPKLLIYGATTLETGVPSRFSGSGSGTDYTLTISSLQPEDFATYYCQQSWNTPWTFGQGTKLEIKRLEIQNPDPAVYQLRDSKSSDKSVCLFTDFDSQTNVSQSKDSDVYITDKCVLDMRSMDFKSNSAVAWSNKSDFACANAFNNSIIPEDTFFPSSDVPCDVKLVEKSFETDTNLNFQNLSVIGFRILLLKVAGFNLLMTLRLWSSRAKRSGSGVKQTLNFDLLKLAGDVESNPGPTSATMDWIWRILFLVGAATGAHSGPQVQLQESGGGLAQAGGSLRLSCAASGRTFSMGWFRQAPGKEREFVAAITYSGGSPYYASSVRGRFTISRDNAKNTVYLQMNSLKPEDTAVYYCAANPTYGSDWNAENWGQGTQVTVSSGSGGGGSGGGGSGGGGSFEQVQLQQPGAELVKPGASVKMSCKASGYAFSSYWINWMKQKPGQGLEWIGQIYPGDGDTNYNGKFKGRATLTADTSSSTAYMQLSSLTSEDSAVYFCARSITTVVGCAMDYWGQGTSVTVSSTREDLKNVFPPEVAVFEPSKAEIAHTQKATLVCLATGFYPDHVELSWWVNGKEVHSGVCTDPQPLKEQPALNDSRYCLSSRLRVSATFWQNPRNHFRCQVQFYGLSENDEWTQDRAKPVTQIVSAEAWGRADCGITSASYHQGVLSATILYEILLGKATLYAVLVSALVLMAMVKRKDSRGRAKRSGSGATNFSLLKQAGDVEENPGPSRGHMTEYKPTVRLATRDDVPRAVRTLAAAFADYPATRHTVDPDRHIERVTELQELFLTRVGLDIGKVWVADDGAAVAVWTTPESVEAGAVFAEIGPRMAELSGSRLAAQQQMEGLLAPHRPKEPAWFLATVGVSPDHQGKGLGSAVVLPGVEAAERAGVPAFLETSAPRNLPFYERLGFTVTADVEVPEGPRTWCMTRKPGA | 4+ (refer to approximately 5%, 10%, 20%, 30%, 40% and 50% GFP positive cells) | + (refer to approximately 5%, 10%, 20%, 30%, 40% and 50% GFP positive cells) | 5+ (refer to approximately 5%, 10%, 20%, 30%, 40% and 50% GFP positive cells)
